In US20050009137A1 (CEDARS SINAI MEDICAL CENTER, published 2005):

Key:
GST protein alone = target: T1, GST protein alone (UniProt P08515 1-218 = GST); assay: GST pull-down from protein extracts of cells overexpressing IEBP, SDS-PAGE and blot with anti-hsp27 antibody
T1 construct: Control in the GST pull-down; also called GST alone
Experimental: Postnuclear extracts were applied to the GST beads and incubated for 1 hour. The loaded GST-extract mixture was then washed repetitively (5×) with PBS buffer containing 5 mM DTT and 1 mM PMSF and resuspended in 2×SDS sample buffer and boiled for 5 minutes. Denatured proteins were resolved on 4-20% SDS-PAGE gel, transferred to a nitrocellulose membrane, probed with appropriate antibody (obtained from Santa Cruz) and visualized by ECL.
Protein extracts of cells overexpressing IEBP were incubated with a GST-receptor ligand-binding domain fusion protein representing the ER. Control assays were employed using a glucocorticoid receptor (GR)-fusion protein or GST protein alone.

recombinant human ERα = target: T2, recombinant human ERα (human, UniProt P03372 1-595); assay: EMSA with consensus ERE probe, recombinant human ERα and extract of IEBP transfectant; supershift with anti-hsp27 antibody
T2 construct: also called estrogen receptor alpha
T2 sequence (looked up): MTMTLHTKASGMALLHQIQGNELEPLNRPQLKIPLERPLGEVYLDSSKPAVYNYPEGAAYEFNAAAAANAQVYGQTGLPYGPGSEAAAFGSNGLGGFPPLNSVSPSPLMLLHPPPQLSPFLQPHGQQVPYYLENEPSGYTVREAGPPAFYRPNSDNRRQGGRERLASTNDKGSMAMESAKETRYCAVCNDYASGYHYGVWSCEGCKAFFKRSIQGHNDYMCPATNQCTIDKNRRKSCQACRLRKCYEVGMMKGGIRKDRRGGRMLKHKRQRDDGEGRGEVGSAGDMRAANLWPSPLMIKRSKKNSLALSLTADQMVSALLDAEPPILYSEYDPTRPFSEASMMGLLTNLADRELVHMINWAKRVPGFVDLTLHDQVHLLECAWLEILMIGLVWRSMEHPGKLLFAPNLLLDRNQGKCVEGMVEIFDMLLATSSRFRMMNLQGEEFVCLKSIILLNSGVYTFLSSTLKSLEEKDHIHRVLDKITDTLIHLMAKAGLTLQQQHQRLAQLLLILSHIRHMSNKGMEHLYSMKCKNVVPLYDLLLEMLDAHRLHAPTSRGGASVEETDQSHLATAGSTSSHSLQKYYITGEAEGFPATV

T1 sequence (P08515 whole entry): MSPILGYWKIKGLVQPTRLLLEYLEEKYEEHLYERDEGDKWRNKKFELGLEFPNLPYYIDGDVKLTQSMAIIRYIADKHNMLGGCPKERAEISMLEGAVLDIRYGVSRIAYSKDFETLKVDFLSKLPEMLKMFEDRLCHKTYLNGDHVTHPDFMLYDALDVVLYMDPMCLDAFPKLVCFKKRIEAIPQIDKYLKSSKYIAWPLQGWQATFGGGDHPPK

B1: intracellular estradiol binding protein (IEBP) of New World primate B95-8 cells (other)
chain: MTERHVPFSLLQSPSWDPFRDWYPHSHLFDQAFGMPRLPEEWSQWFGTSSWPGYVRPLPPTTVEGPAVAAPAYSRALNQQLSSGVSETADRWRVSLDVNHFAPEELTVKTKDGVVEITGKHEERQDEHGFISRCFTRKYSLPPGVDPTQVSPSLSPEGTLTVDAPMSKPATQSNEITIPVTFESRAQLGGPEAAKSDRSAAK
notes: also called hsp27-like IEBP; hsp 27-related IEBP
- binding result (GST protein alone): no binding
- binding result (recombinant human ERα): binds
